Measured values published in paper PMC3017645 (Journal of molecular biology, 2010).

B1: Mtw1p (natural protein, budding yeast (S. cerevisiae), UniProt P39731 1-289, looked up)
chain: MSAPTMRSTSILTEHLGYPPISLVDDIINAVNEIMYKCTAAMEKYLLSKSKIGEEDYGEEIKSGVAKLESLLENSVDKNFDKLELYVLRNVLRIPEEYLDANVFRLENQKDLVIVDENELKKSEEKLREKVNDVELAFKKNEMLLKRVTKVKRLLFTIRGFKQKLNELLKCKDDVQLQKILESLKPIDDTMTLLTDSLRKLYVDSESTSSTEEVEALLQRLKTNGKQNNKDFRTRYIDIRTNNVLRKLGLLGDKEDEKQSAKPDARTQAGDIVSIDIEEPQLDLLDDVL
B2: Nsl1p (natural protein, budding yeast (S. cerevisiae), UniProt Q12143 1-216, looked up)
chain: MSQGQSKKLDVTVEQLRSIYHQFHDILEEKTDLHLPKKEYDDDAVRREVQIQLQEFLLSAMTMASKSLEVVNADTVGKTVKQLIMESQEKYMEPFDLDLNEQVRKMYQEWEDETVKVAQLRQTGPAKINEVYNNSKDEYLAQLDGRIGVLQARMMQQQSADHDDSTDDADDHINWEHIKQDYVASLNELYQTQQDLPKVRYNVEKVKRLMDFLEED
B3: Dsn1p (natural protein, budding yeast (S. cerevisiae), UniProt P40568 1-576, looked up)
chain: MSLEPTQTVSGTPPMLHQRTHKQVYPLRMETIPILESDSKATLQSNEPTQKDEEETEYFENKQSVSNLSPDLKFKRHKNKHIQGFPTLGERLDNLQDIKKAKRVENFNSSAPIADDNHSGDATANATANATANATANVNASAMPAPYMPYYYYYHPMNAPTPAMIPYPGSPMHSIMPNSSLQPFYSQPTAAGGPDMTTPQNISSSQQLLPAPQLFPYGSFHQQQLQQPHYIQRTRERKKSIGSQRGRRLSMLASQANGGSTIISPHKDIPEEDFYTVVGNASFGKNLQIRQLFNWCLMRSLHKLELKAKNQEEEGELEHLTKKSKLESTKAETDYVDPKRLAMVIIKEFVDDLKKDHIAIDWEDEEKYEDEDEEKILDNTENYDDTELRQLFQENDDDDDDDDEVDYSEIQRSRRKFSERRKALPKEPKKLLPNSKNVENTKNLSILTSKVNAIKNEVKEWAVTLDTSRPDLEWQELTSFSSQPLEPLSDTEEPDLAIADVETKLETKVDELRYQSHILNSHSLALNEITNSKVNKLNIETMRKISSETDDDHSQVINPQQLLKGLSLSFSKKLDL

biological target: T1, Nnf1p-6xHis (budding yeast (S. cerevisiae), UniProt P47149 1-201); assay: co-purification of co-expressed subunits
T1 sequence (looked up): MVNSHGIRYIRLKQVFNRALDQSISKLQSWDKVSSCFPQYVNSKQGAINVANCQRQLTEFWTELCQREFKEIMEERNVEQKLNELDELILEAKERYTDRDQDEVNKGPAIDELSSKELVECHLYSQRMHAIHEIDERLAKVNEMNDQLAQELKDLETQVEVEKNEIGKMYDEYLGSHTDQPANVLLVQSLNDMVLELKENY

Binder | stoichiometry N
B1 | 1
B2 | 1
B3 | 1
